This note sets out measurements from patent US20180236032A1.

Read-outs that look alike come from different tables or passages of the source.

Assay in all cases: cell-based or functional assay
In assay [1] the target is FGFR3c expressed on BaF3 cells (BaF3/FGFR3c).
Assay [2] has the same target. The source holds these as a separate data set.
For assay [3] the target is unchanged. The source holds these as a separate data set.

Turning to “recombinant truncated FGF-18 (trFGF-18) (from UniProt O76093 28-196) (ligand)”, the BaF3/FGFR3 cell proliferation, O.D. (WST-1), Sprifermin 100 ng/mL (CTR+) in assay [1] worked out at 0.15 O.D; in assay [2], 0.194 O.D; in assay [3], 0.5 O.D. Moreover, in assay [3], the BaF3/FGFR3 cell proliferation, Optical Density (WST-1), Sprifermin 100 ng/mL (CTR+) came to 0.5 O.D.
